From paper doi:10.1101/681007 (bioRxiv, 2019) come the findings set out here.

Series [1] has as its target Human TAp63α (aa10-616, TEV site inserted at aa570 and V599M) (human). In words: SEC. Background: In gel filtration, larger molecules generally elute earlier.
The series “native gel or EMSA” deals with the molecule itself. In words: native gel or EMSA. For orientation: Mobility shift assays separate free from complexed probe on a gel.

The molecule “Human TAp63α (aa10-616, TEV site inserted at aa570 and V599M) (natural protein)” gave a stoichiometry N in series [1] of 2.

B1: TAp63α, endogenous in mouse ovaries, untreated (closed dimeric form) (natural protein, mouse (endogenous in ovaries), UniProt O88898-1 40-680, looked up)
chain: MSQSTQTSEFLSPEVFQHIWDFLEQPICSVQPIELNFVDEPSENGATNKIEISMDCIRMQDSDLSDPMWPQYTNLGLLNSMDQQIQNGSSSTSPYNTDHAQNSVTAPSPYAQPSSTFDALSPSPAIPSNTDYPGPHSFDVSFQQSSTAKSATWTYSTELKKLYCQIAKTCPIQIKVMTPPPQGAVIRAMPVYKKAEHVTEVVKRCPNHELSREFNEGQIAPPSHLIRVEGNSHAQYVEDPITGRQSVLVPYEPPQVGTEFTTVLYNFMCNSSCVGGMNRRPILIIVTLETRDGQVLGRRCFEARICACPGRDRKADEDSIRKQQVSDSAKNGDGTKRPFRQNTHGIQMTSIKKRRSPDDELLYLPVRGRETYEMLLKIKESLELMQYLPQHTIETYRQQQQQQHQHLLQKQTSMQSQSSYGNSSPPLNKMNSMNKLPSVSQLINPQQRNALTPTTMPEGMGANIPMMGTHMPMAGDMNGLSPTQALPPPLSMPSTSHCTPPPPYPTDCSIVSFLARLGCSSCLDYFTTQGLTTIYQIEHYSMDDLASLKIPEQFRHAIWKGILDHRQLHDFSSPPHLLRTPSGASTVSVGSSETRGERVIDAVRFTLRQTISFPPRDEWNDFNFDMDSRRNKQQRIKEEGE
Consider B1, for which the “stoichiometry N” value in the series “native gel or EMSA” stood at 2.

B2: TAp63α, endogenous in mouse ovaries, phosphorylated after 0.5 Gy γ-irradiation (active tetrameric form) (natural protein, mouse (endogenous in ovaries), UniProt O88898-1 40-680, looked up)
chain: MSQSTQTSEFLSPEVFQHIWDFLEQPICSVQPIELNFVDEPSENGATNKIEISMDCIRMQDSDLSDPMWPQYTNLGLLNSMDQQIQNGSSSTSPYNTDHAQNSVTAPSPYAQPSSTFDALSPSPAIPSNTDYPGPHSFDVSFQQSSTAKSATWTYSTELKKLYCQIAKTCPIQIKVMTPPPQGAVIRAMPVYKKAEHVTEVVKRCPNHELSREFNEGQIAPPSHLIRVEGNSHAQYVEDPITGRQSVLVPYEPPQVGTEFTTVLYNFMCNSSCVGGMNRRPILIIVTLETRDGQVLGRRCFEARICACPGRDRKADEDSIRKQQVSDSAKNGDGTKRPFRQNTHGIQMTSIKKRRSPDDELLYLPVRGRETYEMLLKIKESLELMQYLPQHTIETYRQQQQQQHQHLLQKQTSMQSQSSYGNSSPPLNKMNSMNKLPSVSQLINPQQRNALTPTTMPEGMGANIPMMGTHMPMAGDMNGLSPTQALPPPLSMPSTSHCTPPPPYPTDCSIVSFLARLGCSSCLDYFTTQGLTTIYQIEHYSMDDLASLKIPEQFRHAIWKGILDHRQLHDFSSPPHLLRTPSGASTVSVGSSETRGERVIDAVRFTLRQTISFPPRDEWNDFNFDMDSRRNKQQRIKEEGE
modifications: phosphorylated (phosphorylation dependent mobility shift on SDS-PAGE); the sites were not determined in this experiment
On to B2, for which the “stoichiometry N” value in “native gel or EMSA” was 4.

One may read the stoichiometry N as a count of units in the complex or per binding partner.
